Assay results: PMC4934754, “HCF1 and OCT2 Cooperate with EBNA1 To Enhance OriP-Dependent Transcription and Episome Maintenance of Latent Epstein-Barr Virus”

T1: His-OCT2 DBD (HTRF) (UniProt P09086-3 175-345)
T1 sequence: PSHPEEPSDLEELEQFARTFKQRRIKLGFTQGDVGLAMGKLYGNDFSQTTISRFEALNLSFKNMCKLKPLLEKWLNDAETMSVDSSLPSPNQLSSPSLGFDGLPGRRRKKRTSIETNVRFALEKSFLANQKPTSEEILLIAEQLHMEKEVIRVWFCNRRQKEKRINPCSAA

T2: OCT2 DBD (UniProt P09086-3 175-345)
T2 sequence: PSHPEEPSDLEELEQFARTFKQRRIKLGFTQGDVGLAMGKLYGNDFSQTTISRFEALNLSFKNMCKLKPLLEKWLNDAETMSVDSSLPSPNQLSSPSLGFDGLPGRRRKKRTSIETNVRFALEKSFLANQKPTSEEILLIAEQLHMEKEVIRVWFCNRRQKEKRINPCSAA


Columns and labels:
EBNA1 DBD;OCT2 DBD [1] = molecular target: T3, EBNA1 DBD;OCT2 DBD (Epstein-Barr virus;human?, UniProt P03211;P09086-3 459-607;175-345, |); experiment: HTRF; 15 nM His-EBNA1, 2.5-40 nM unlabeled OCT2; OCT2 stimulates EBNA1 binding; Buffer not given (EMSA as in cited ref. 32; HTRF and ALPHA in similar conditions; 1 h incubation for HTRF); settings: protein: recombinant;recombinant; tags: His;none (His-SUMO removed by SUMO protease); copies: 1;1; label: 5' biotin, streptavidin Eu3+ cryptate
T3 sequence (P03211 459-607, one chain of several): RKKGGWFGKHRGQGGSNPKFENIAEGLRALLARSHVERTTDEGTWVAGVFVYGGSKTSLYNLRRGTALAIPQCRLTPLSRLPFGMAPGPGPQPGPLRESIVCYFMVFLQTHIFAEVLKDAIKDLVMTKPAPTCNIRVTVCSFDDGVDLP

His-OCT2 DBD (HTRF) = molecular target: T1, His-OCT2 DBD (HTRF); experiment: HTRF; 0-80 nM OCT2; Buffer not given (EMSA as in cited ref. 32; HTRF and ALPHA in similar conditions; 1 h incubation for HTRF); settings: protein: recombinant; label: 5' biotin, streptavidin Eu3+ cryptate
EBNA1 DBD;OCT2 DBD [2] = molecular target: T3, EBNA1 DBD;OCT2 DBD; experiment: EMSA; EBNA1 titration with 40 nM OCT2 or OCT2 titration with 15 nM EBNA1; saturated complex distinct from EBNA1 alone; Buffer not given (EMSA as in cited ref. 32; HTRF and ALPHA in similar conditions; 1 h incubation for HTRF); settings: protein: recombinant;recombinant; tags: His;none (His-SUMO removed by SUMO protease); copies: 1;1; label: 32P
OCT2 DBD = molecular target: T2, OCT2 DBD; experiment: EMSA; single major species at 40 nM OCT2, larger complex at higher concentration; Buffer not given (EMSA as in cited ref. 32; HTRF and ALPHA in similar conditions; 1 h incubation for HTRF); settings: protein: recombinant; tags: none (His-SUMO removed by SUMO protease); label: 32P
EBNA1 DBD = EBNA1 DBD (Epstein-Barr virus, UniProt P03211 459-607); experiment: EMSA; no OCT2; low nanomolar affinity, two major species; Buffer not given (EMSA as in cited ref. 32; HTRF and ALPHA in similar conditions; 1 h incubation for HTRF); settings: protein: recombinant; tags: His; label: 32P
Sequence of EBNA1 DBD (P03211 459-607): as the sequence (P03211 459-607, one chain of several) above

| Binder | binding result (EBNA1 DBD;OCT2 DBD [1]) | binding result (His-OCT2 DBD (HTRF)) | binding result (EBNA1 DBD;OCT2 DBD [2]) | binding result (OCT2 DBD) | binding result (EBNA1 DBD) |
| --- | --- | --- | --- | --- | --- |
| 2xFR (60 bp), biotin (dsDNA) DNA 1: ATTAGGATAGCCTATGCTACCCAGATATAGATTAGGATAGCATATGCTACCCAGATATAG DNA 2: CTATATCTGGGTAGCATATGCTATCCTAATCTATATCTGGGTAGCATAGGCTATCCTAAT | binds | binds |  |  |  |
| 2xFR (60-mer), 32P (dsDNA) DNA 1: ATTAGGATAGCCTATGCTACCCAGATATAGATTAGGATAGCATATGCTACCCAGATATAG DNA 2: CTATATCTGGGTAGCATATGCTATCCTAATCTATATCTGGGTAGCATAGGCTATCCTAAT |  |  | binds | binds | binds |
